From paper PMC5562730, “Three recombinantly expressed apple tyrosinases suggest the amino acids responsible for mono- versus diphenolase activity in plant polyphenol oxidases” (Scientific Reports, 2017)

Experiments:
[1] = substrate: NCCc1ccc(O)cc1; assay: purified protein; type: biochemical, Malus domestica; settings: 50 mM Tris-HCl pH 7.0, 25 °C, 3 mM SDS as activator
[2] = substrate: NCCc1ccc(O)c(O)c1; assay: purified protein; type: biochemical, Malus domestica; settings: 50 mM Tris-HCl pH 7.0, 25 °C, 3 mM SDS as activator

B1: MdPPO1 (Malus domestica) (protein)
chain: KPIAPPDVSKCGPADLPQGAVPTNCCPPPSTKIIDFKLPAPAKLRIRPPAHAVDQAYRDKYYKAMELMKALPDDDPRSFKQQAAVHCAYCDGAYDQVGFPELELQIHNSWLFFPFHRYYLYFFEKILGKLINDPTFALPFWNWDSPAGMPLPAIYADPKSPLYDKLRSANHQPPTLVDLDYNGTEDNVSKETTINANLKIMYRQMVSNSKNAKLFFGNPYRAGDEPDPGGGSIEGTPHAPVHLWTGDNTQPNFEDMGNFYSAGRDPIFFAHHSNVDRMWSIWKTLGGKRTDLTDSDWLDSGFLFYNENAELVRVKVRDCLETKNLGYVYQDVDIPWLSSKPTPRRAKVALSKVAKKLGVAHAAVASSSKVVAGTEFPISLGSKISTVVKRPKQKKRSKKAKEDEEEILVIEGIEFDRDVAVKFDVYVNDVDDLPSGPDKTEFAGSFVSVPHSHKHKKKMNTILRLGLTDLLEEIEAEDDDSVVVTLVPKFGAVKIGGIKIEFAS
notes: latent pro-enzyme without transit peptide, C-terminal domain kept; GST tag cut (HRV3C, pGEX-6P-1 SmaI); E. coli BL21
In the case of B1, the Km [1] is reported as 710 ± 36 µM, the kcat [1] is reported as 9.5 ± 0.43 s⁻¹ and the Km [2] is reported as 480 ± 38 µM. For the same protein, the kcat [2] was 100 ± 4.54 s⁻¹.
